Measured values from publication PMC12407707 (bioRxiv, 2025).

How the values were obtained:
[1] = target: purified human PSA (shorter isoform), mCherry-Strep-tag II removed by thrombin (human, UniProt P55786-1 45-919); assay: cryo-EM structure
cryo-EM structure = target: the molecule itself; assay: cryo-EM structure

Sequence of purified human PSA (shorter isoform), mCherry-Strep-tag II removed by thrombin (P55786 45-919): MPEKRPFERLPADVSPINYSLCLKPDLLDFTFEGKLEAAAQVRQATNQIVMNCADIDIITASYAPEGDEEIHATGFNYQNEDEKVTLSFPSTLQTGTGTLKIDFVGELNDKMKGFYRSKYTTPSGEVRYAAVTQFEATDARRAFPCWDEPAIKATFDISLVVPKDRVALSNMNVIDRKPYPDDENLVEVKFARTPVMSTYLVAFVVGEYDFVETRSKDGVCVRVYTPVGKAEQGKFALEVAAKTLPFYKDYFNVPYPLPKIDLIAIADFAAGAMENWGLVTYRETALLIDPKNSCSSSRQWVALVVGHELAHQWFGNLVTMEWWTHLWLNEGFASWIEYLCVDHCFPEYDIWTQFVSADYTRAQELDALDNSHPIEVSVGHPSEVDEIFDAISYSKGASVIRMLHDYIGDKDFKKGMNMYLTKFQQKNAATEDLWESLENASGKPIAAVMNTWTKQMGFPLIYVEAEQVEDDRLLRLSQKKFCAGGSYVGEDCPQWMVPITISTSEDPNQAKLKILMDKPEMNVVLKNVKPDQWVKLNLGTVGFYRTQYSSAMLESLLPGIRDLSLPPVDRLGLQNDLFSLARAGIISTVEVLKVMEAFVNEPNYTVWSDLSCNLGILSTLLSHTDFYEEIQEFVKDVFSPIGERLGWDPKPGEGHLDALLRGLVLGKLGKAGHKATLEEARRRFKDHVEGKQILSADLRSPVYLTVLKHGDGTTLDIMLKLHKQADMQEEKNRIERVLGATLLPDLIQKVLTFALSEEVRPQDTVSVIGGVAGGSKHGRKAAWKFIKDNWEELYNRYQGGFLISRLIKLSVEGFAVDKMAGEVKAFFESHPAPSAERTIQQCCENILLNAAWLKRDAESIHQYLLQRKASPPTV

B1: purified human SWELL1 homo-hexamer, tag removed by thrombin (cryo-EM sample) (natural protein)
chain: MIPVTELRYFADTQPAYRILKPWWDVFTDYISIVMLMIAVFGGTLQVTQDKMICLPCKWVTKDSCNDSFRGWAAPGPEPTYPNSTILPTPDTGPTGIKYDLDRHQYNYVDAVCYENRLHWFAKYFPYLVLLHTLIFLACSNFWFKFPRTSSKLEHFVSILLKCFDSPWTTRALSETVVEESDPKPAFSKMNGSMDKKSSTVSEDVEATVPMLQRTKSRIEQGIVDRSETGVLDKKEGEQAKALFEKVKKFRTHVEEGDIVYRLYMRQTIIKVIKFILIICYTVYYVHNIKFDVDCTVDIESLTGYRTYRCAHPLATLFKILASFYISLVIFYGLICMYTLWWMLRRSLKKYSFESIREESSYSDIPDVKNDFAFMLHLIDQYDPLYSKRFAVFLSEVSENKLRQLNLNNEWTLDKLRQRLTKNAQDKLELHLFMLSGIPDTVFDLVELEVLKLELIPDVTIPPSIAQLTGLKELWLYHTAAKIEAPALAFLRENLRALHIKFTDIKEIPLWIYSLKTLEELHLTGNLSAENNRYIVIDGLRELKRLKVLRLKSNLSKLPQVVTDVGVHLQKLSINNEGTKLIVLNSLKKMANLTELELIRCDLERIPHSIFSLHNLQEIDLKDNNLKTIEEIISFQHLHRLTCLKLWYNHIAYIPIQIGNLTNLERLYLNRNKIEKIPTQLFYCRKLRYLDLSHNNLTFLPADIGLLQNLQNLAITANRIETLPPELFQCRKLRALHLGNNVLQSLPSRVGELTNLTQIELRGNRLECLPVELGECPLLKRSGLVVEEDLFNTLPPEVKERLWRADKEQA
B1 was tested, and the binding result [1] was “binds” and the “stoichiometry N” value (cryo-EM structure) was 6.
